Assay results from article PMC4145799, “Assembly principles of a unique cage formed by hexameric and decameric E. coli proteins” (eLife, 2014).

B1: AAA+ ATPase RavA (enzyme)
chain: not shown
notes: RavA of Escherichia coli, MoxR family AAA+ ATPase; crystal structure pdb 3NBX; The purification is told for the RavA mutants ('as previously described', El Bakkouri et al., 2010); also called MoxR AAA+ ATPase RavA; source: E. coli BL21-(DE3) Gold pLysS, from p11 plasmid, purified (Ni-NTA, TEV, MonoS, Superdex S200); not shown: 6xHis-tag, N-terminal, cleaved
B2: inducible lysine decarboxylase LdcI (enzyme, Escherichia coli)
chain: MNVIAILNHMGVYFKEEPIRELHRALERLNFQIVYPNDRDDLLKLIENNARLCGVIFDWDKYNLELCEEISKMNENLPLYAFANTYSTLDVSLNDLRLQISFFEYALGAAEDIANKIKQTTDEYINTILPPLTKALFKYVREGKYTFCTPGHMGGTAFQKSPVGSLFYDFFGPNTMKSDISISVSELGSLLDHSGPHKEAEQYIARVFNADRSYMVTNGTSTANKIVGMYSAPAGSTILIDRNCHKSLTHLMMMSDVTPIYFRPTRNAYGILGGIPQSEFQHATIAKRVKETPNATWPVHAVITNSTYDGLLYNTDFIKKTLDVKSIHFDSAWVPYTNFSPIYEGKCGMSGGRVEGKVIYETQSTHKLLAAFSQASMIHVKGDVNEETFNEAYMMHTTTSPHYGIVASTETAAAMMKGNAGKRLINGSIERAIKFRKEIKRLRTESDGWFFDVWQPDHIDTTECWPLRSDSTWHGFKNIDNEHMYLDPIKVTLLTPGMEKDGTMSDFGIPASIVAKYLDEHGIVVEKTGPYNLLFLFSIGIDKTKALSLLRALTDFKRAFDLNLRVKNMLPSLYREDPEFYENMRIQELAQNIHKLIVHHNLPDLMYRAFEVLPTMVMTPYAAFQKELHGMTEEVYLDEMVGRINANMILPYPPGVPLVMPGEMITEESRPVLEFLQMLCEIGAHYPGFETDIHGAYRQADGRYTVKVLKEESKK
notes: Inducible lysine decarboxylase LdcI of Escherichia coli; decamer of two pentameric rings; crystal structure pdb 3N75; also called acid stress-inducible lysine decarboxylase; source: E. coli CF1693 bearing pT7-322-Tetr, from pET22b, purified (Ni-NTA, MonoQ, Superdex S200); not shown: 24 amino acid linker containing 6xHis-tag, C-terminal, kept; copies: 10

How the values were obtained:
[1] = target: B2; assay: cryo-EM structure; LdcI–RavA complex, 11 Å; 1.26 mg/ml LdcI mixed with 0.94 mg/ml RavA, 15 min at room temperature, 25 mM Mes pH 6.5, 200 mM NaCl, 3 mM ADP, 0.8 mM PLP, 1 mM DTT; no cross-linking; D5 symmetry imposed; conditions: both partners purified
[2] = target: the molecule itself; assay: as above
[3] = target: the molecule itself; assay: cryo-EM structure; LdcI-LARA complex, 7.5 Å; 7.3 µM LdcI with 73 µM LARA (1:10), 15 min at room temperature, 50 mM Mes pH 6.5, 100 mM NaCl, 0.2 mM PLP, 1 mM DTT, 0.01% glutaraldehyde; D5 symmetry imposed

stoichiometry N [1]	Binder	stoichiometry N [2]	stoichiometry N [3]
1.5 RavA monomers per LdcI monomer	B1	6	–
–	B2	–	10
